According to paper PMC4180932, “Reorganisation of the Salivary Mucin Network by Dietary Components: Insights from Green Tea Polyphenols” (PLOS One, 2014):

Legend:
[1] = target: CT5B, recombinant C-terminal construct of MUC5B (D4-B-C-CK domains, residues 4958-5765) (human); assay: SDS-PAGE; purified recombinant protein seen as monomer and dimer; gels of gradient fractions, silver stained (NT5B) or Coomassie stained (CT5B)
[2] = target: the molecule itself; assay: as above

Row | stoichiometry N [1] | Molecule | stoichiometry N [2]
1 | 2 | CT5B, recombinant C-terminal construct of MUC5B (D4-B-C-CK domains, residues 4958-5765) (domain or fragment) | 
2 |  | NT5B, recombinant N-terminal construct of MUC5B (D1-D2-D′-D3 domains, residues 26-1304) (domain or fragment, human, UniProt Q9HC84 26-1304, looked up, MUC5B, human, D1-D2-D′-D3 domains, residues 26-1304; Purified as a mixture of monomer and dimer (75 and 150 kDa as printed); also called N-terminal MUC5B protein) QGPVEPSWENAGHTMDGGAPTSSPTRRVSFVPPVTVFPSLSPLNPAHNGRVCSTWGDFHYKTFDGDVFRFPGLCNYVFSEHCRAAYEDFNVQLRRGLVGSRPVVTRVVIKAQGLVLEASNGSVLINGQREELPYSRTGLLVEQSGDYIKVSIRLVLTFLWNGEDSALLELDPKYANQTCGLCGDFNGLPAFNEFYAHNARLTPLQFGNLQKLDGPTEQCPDPLPLPAGNCTDEEGICHRTLLGPAFAECHALVDSTAYLAACAQDLCRCPTCPCATFVEYSRQCAHAGGQPRNWRCPELCPRTCPLNMQHQECGSPCTDTCSNPQRAQLCEDHCVDGCFCPPGTVLDDITHSGCLPLGQCPCTHGGRTYSPGTSFNTTCSSCTCSGGLWQCQDLPCPGTCSVQGGAHISTYDEKLYDLHGDCSYVLSKKCADSSFTVLAELRKCGLTDNENCLKAVTLSLDGGDTAIRVQADGGVFLNSIYTQLPLSAANITLFTPSSFFIVVQTGLGLQLLVQLVPLMQVFVRLDPAHQGQMCGLCGNFNQNQADDFTALSGVVEATGAAFANTWKAQAACANARNSFEDPCSLSVENENYARHWCSRLTDPNSAFSRCHSIINPKPFHSNCMFDTCNCERSEDCLCAALSSYVHACAAKGVQLSDWRDGVCTKYMQNCPKSQRYAYVVDACQPTCRGLSEADVTCSVSFVPVDGCTCPAGTFLNDAGACVPAQECPCYAHGTVLAPGEVVHDEGAVCSCTGGKLSCLGASLQKSTGCAAPMVYLDCSNSSAGTPGAECLRSCHTLDVGCFSTHCVSGCVCPPGLVSDGSGGCIAEEDCPCVHNEATYKPGETIRVDCNTCTCRNRRWECSHRLCLGTCVAYGDGHFITFDGDRYSFEGSCEYILAQDYCGDNTTHGTFRIVTENIPCGTTGTTCSKAIKLFVESYELILQEGTFKAVARGPGGDPPYKIRYMGIFLVIETHGMAVSWDRKTSVFIRLHQDYKGRVCGLCGNFDDNAINDFATRSRSVVGDALEFGNSWKLSPSCPDALAPKDPCTANPFRKSWAQKQCSILHGPTFAACRSQVDSTKYYEACVNDACACDSGGDCECFCTAVAAYAQACHDAGLCVSWRTPDTCPLFCDFYNPHGGCEWHYQPCGAPCLKTCRNPSGHCLVDLPGLEGCYPKCPPSQPFFNEDQMKCVAQCGCYDKDGNYYDVGARVPTAENCQSCNCTPSGIQCAHSLEACTCTYEDRTYSYQDVIYNTTDGLGACLIAICGSNGTIIRKAVACPG | 2
